Reference: the supplement of paper PMC9170038

Tested on: MS2 coat protein
Assay: apparent KD of MS2 coat protein; designed switch direction (-1 OFF switch, 1 ON switch): 1; higher = weaker reporter binding
In short: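 Normalised cluster fluorescence was curve-fitted, and each design's median over clusters is its apparent KD. Before this, SNAP-549-labelled MS2 coat protein was titrated from 0.7 or 1.5 nM, doubling to 3 µM, over RNA switches transcribed on Illumina chips by stalled E. coli RNA polymerase. Titrations had no input, 200 uM small-molecule ligand, or an oligonucleotide input, and steps lasted 0.8–1.5 h (lowest) to 10–20 min (highest).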

[1] = input ligand: microRNA oligo, concentration not stated
[2] = Eterna round: R95, input ligand: microRNA oligo, concentration not stated
[3] = Eterna round: R95, input ligand: FMN 200 uM
[4] = Eterna round: R95, input ligand: none

Sequence	apparent KD of MS2 coat protein (input ligand: FMN 200 uM) [nM]	apparent KD of MS2 coat protein [1] [nM]	apparent KD of MS2 coat protein (input ligand: none) [nM]	apparent KD of MS2 coat protein [2] [nM]	apparent KD of MS2 coat protein [3] [nM]	apparent KD of MS2 coat protein [4] [nM]
UGGUACAUGGGAGGAUAUCAUGCAGACAUGAGGAUCACCCAUGUAGCCAUGGAGACAUGGGUAUAUGAGAAGGCCCAUGUACCU [JL SSNG1 3.53] (Eterna round: R96, puzzle: Same State NG 2)	145	37.7	207			
UGGUACAUGGGAGGAUAUCAUGUAGAAACAUGAGGAUCACCCAUGUAGAUGGCCGGUAACCGGAAUGAGAAGGCCCAUGUACCU [JL SSNG1 3.63] (Eterna round: R96, puzzle: Same State NG 2)	22.7	18.9	30.6			
UGGUACAUGGGAGGAUAUCAUGUAGAAACAUGAGGAUCACCCAUGUAGUUGGCAGCUUUGCUGAAUGAGAAGGCCCAUGUACCU [JL SSNG1 3.59] (Eterna round: R96, puzzle: Same State NG 2)	20.6	19.5	26.7			
UGGUACAUGGGAGGAUAUCAUGUAGACACAUGAGGAUCACCCAUGUCGAUGGAGACAUCGGAGAUUGAGAAGGCCCAUGUACCU [JL SSNG1 3.55] (Eterna round: R96, puzzle: Same State NG 2)	18.6	291	647			
UGGUACAUGGGAGGAUAUCCUAUGGUGACAUGAGGAUCACCCAUGUAAUUGGAGCCGAAAGGCAUGGAGAAGGCCCAUGUACCU [JL SSNG1 3.78] (Eterna round: R96, puzzle: Same State NG 2)	40.2	31.4	44.1			
UGGUACAUGGGAGGAUAUCUCAUGGUGACAUGAGGAUCACCCAUGUAGUUGGAGCCGAAAGGCAGAGAGAAGGCCCAUGUACCU [JL SSNG1 3.77] (Eterna round: R96, puzzle: Same State NG 2)	69.2	65.7	96.3			
UGGUACAUGGGAGGAUAUCUCGUGGAGACAUGAGGAUCACCCAUGUAGAUGGCCGGUAACCGGUGAGAGAAGGCCCAUGUACCU [JL SSNG1 3.69] (Eterna round: R96, puzzle: Same State NG 2)	71.6	42.2	141			
UGUACCUUCACAGGAUAUCAUGCGAAAAUUGCGUGAGAAGGGUGAAUACUGUCUUACUAAGAGCACAUGAGGAUCACCCAUGUA [SameState NG1 #58] (Eterna round: R96, puzzle: Same State NG 1)	269	198	296			
UGUAUACAUGAGGAUCACCCAUGUCAACGUAGUCGAGGAUAUGGGCAGCCGUGAGGCGUACUAGAAGGCGAAGAGG [JL-ss1-3.06 ViennaUCT mod] (puzzle: Same State 1)				116		
UGUUAACAUGAGGAUCACCCAUGUCAAAUGAAUGCAGGAUAUGGGAAGUAAUAAGAUAAACCAGAAGGGCAAGUUG [Altered State 1-17 - Jieux - Same State 1] (puzzle: Same State 1)				162	49.4	311
UGUUAUUAGACAGGAUAUUGAAUGUUAAGUAUUAACAUGAGGAUCACCCAUGUAUUUGAUUGGUACAAGAAGGGUCAUGUUCCU [JR_SSNG2_Sub016] (Eterna round: R96, puzzle: Same State NG 2)		399				
UGUUCGUAGGAAGGAUAUCGAAAUAAAGGCGUCCACAUGAGGAUCACCCAUGUCGGCGGACCAAACGAGAAGGUCUACCCGGAC [Eternabot solution 12] (Eterna round: R96, puzzle: Same State NG 2)	9.42	8.37	11.6			
UGUUGUAUUACAGGAUAUCUAGUAUAUUUAUUUAGAGAAGGGUAUUCACAUGAGGAUCACCCAUGUAUAUACGAGGAAGUUGUG [JMF's solution 37] (Eterna round: R96, puzzle: Same State NG 1)		29.6				
UGUUGUAUUACAGGAUAUCUAGUAUUUGUAUUUAGAGAAGGGUAUUCACAUGAGGAUCACCCAUGUAUAUACGAGGAAGUUGUG [JMF's solution 42] (Eterna round: R96, puzzle: Same State NG 1)	53.7	35.4	48.3			
UGUUGUAUUACAGGAUAUCUAUGUUUUUUAUUUAGAGAAGGGUAUUCACAUGAGGAUCACCCAUGUAUAUACGAGGAAGUUGUG [JMF's solution 57] (Eterna round: R96, puzzle: Same State NG 1)		40.4				
UGUUGUAUUACAGGAUAUCUAUUAGCUUUAUUUAGAGAAGGGUAUUCACAUGAGGAUCACCCAUGUAUAUACGAGGAAGUUGUG [JMF's solution 88] (Eterna round: R96, puzzle: Same State NG 1)		33.6				

Sequence	apparent KD of MS2 coat protein (input ligand: FMN 200 uM) [nM]	apparent KD of MS2 coat protein [1] [nM]	apparent KD of MS2 coat protein (input ligand: none) [nM]	apparent KD of MS2 coat protein [2] [nM]	apparent KD of MS2 coat protein [3] [nM]	apparent KD of MS2 coat protein [4] [nM]
UGUUGUAUUACAGGAUAUCUAUUAUUUUUAUGUAGAGAAGGGUAUUCACAUGAGGAUCACCCAUGUAUAUACGAGGAAGUUGUG [JMF's solution 29] (Eterna round: R96, puzzle: Same State NG 1)		32.9				
UGUUGUUAAUUAGGAUAUGGUCACAUGAGGAUCACCCAUGUAAUGUCGAUGCUAUGUGGACACGAUCAGAAGGAAUGGCUAACA [SameState NG2 #93] (Eterna round: R96, puzzle: Same State NG 2)	21.3	69.7	102			
UUAAAACAUGAGGAUCACCCAUGUAAUAAUAUGGGAGGAUAUCAGAAUGUAUGUAUGUAAUGAGAAGGCCUAAAUU [Mat - Same State 1 - Mod of Eli - D76] (puzzle: Same State 1)				519	63.6	1280
UUAAAACAUGAGGAUCACCCAUGUAAUAAUAUGGGAGGAUAUCAGAUUUAAUUUAAUUUAUGAGAAGGCCUAAAUU [Mat - Same State 1 - Mod of Eli - D61] (puzzle: Same State 1)				163	58.7	512
UUAACAUGAGGAUCACCCAUGUAUAGGGAGUUAACAAUUGGACAGGAUAUUGAAGAUGUAGAUAGCAAGAAGGGUCGGUAGUCU [JR_SSNG3_Sub001] (Eterna round: R96, puzzle: Same State NG 3)		30				
UUAACAUGAGGAUCACCCAUGUAUGCGUAGCUUGCAUUUUGACAGGAUAUUGAAUAUCUAUAUAGCAAGAAGGGUCGUUAGUCU [JR_SSNG3_Sub008] (Eterna round: R96, puzzle: Same State NG 3)	91.8	53.3	94.9			
UUAAGCAACGGGCAGGAUAUGUAUUAAUAUACAUGAGGAUCACCCAUGUGCAGGUGUAACACCUGACAGAAGGGCCAAUCGCUGC [Soteed - 10] (puzzle: Same State 2)				509	82.1	515
UUAAGCCACGGGCAGGAUAUGUAUUAAAAUACAUGAGGAUCACCCAUGUGCAGGUGUAACACCUGGCAGAAGGGCCAAUCGCGGC [Soondi - 4] (puzzle: Same State 2)				149	29.2	171
UUAAUAAUGAUAGGAUAUACAUGAGGAAUUCUCGUAGAAGGAUCAUGACAUGAGGAUCACCCAUGUAACGCUCCGUAGAGCGUA [Mat - Same State NG 1 - JL mod - D36] (Eterna round: R96, puzzle: Same State NG 1)	413	321	447			
UUACUCAUGUAAGGAUAUGCAGCCGAAACGGCUGCAGAAGGUACUAUAAUACAUGAGGAUCACCCAUGUCUCUAUUAUUUAGUU [Mat - Same State NG 1 - JL mod - D94] (Eterna round: R96, puzzle: Same State NG 1)	73.4	38.2	58			
UUACUCAUGUAAGGAUAUGCAGCCGUUUCGGCUGCAGAAGGUACUAUAAUACAUGAGGAUCACCCAUGUCUUUUUAAUUUUUAC [JL SSNG1 1.28] (Eterna round: R96, puzzle: Same State NG 1)	87.5	24.4	54.2			
UUAUUAAUUACAUGAGGAUCACCCAUGUUAAAUAGUCAGAGACAGGAUAUAGAAGUCUCGUUUUACUAGAAGGGUCAUUAUAUG [JR_SSNG3_Sub013] (Eterna round: R96, puzzle: Same State NG 3)	40.7	27.2	35.8			
UUAUUAAUUACAUGAGGAUCACCCAUGUUUUUUUGUCAGAGACAGGAUAUAGAAGUCUCGUUUUACUAGAAGGGUCAUUAUAUG [JR_SSNG3_Sub014] (Eterna round: R96, puzzle: Same State NG 3)	25.6	19	29.7			
UUCAAUGGGAUAGGAUAUCCUGCGGCGAGGCGUGGAGAAGGGUCAAGUACAUGAGGAUCACCCAUGUUUCGGAAAUAUUCCGAG [Eternabot solution 29] (Eterna round: R96, puzzle: Same State NG 1)	121	41.5	125			
UUCCCAUCGGGAGGAUAUGGAACCUUAUUGGUUCUAGAAGGUCCAACAUGAGGAUCACCCAUGUGGGAGUGGUCUAAUGACCUC [SS NG10LRO03] (Eterna round: R96, puzzle: Same State NG 1)	264	288	333			
